Assay results reported in patent publication CN111662383A (ZHUHAI LIVZON MCAB BIOTECHNOLOGY CO LTD; DINGFU BIOTARGET …, dated 2020).
Like-named read-outs stand apart in the source and are kept apart here. One block for each binder: values may come before it.

Tests used:
[1] = target: T1, hB7H3-EGFP细胞 (HEK293 cells expressing human B7H3-EGFP) (human, UniProt Q5ZPR3 29-534); assay: FACS on transfected HEK293 cells
T1 construct: not shown: enhanced green fluorescent protein EGFP, UniProt C5MKY7
T1 sequence (looked up): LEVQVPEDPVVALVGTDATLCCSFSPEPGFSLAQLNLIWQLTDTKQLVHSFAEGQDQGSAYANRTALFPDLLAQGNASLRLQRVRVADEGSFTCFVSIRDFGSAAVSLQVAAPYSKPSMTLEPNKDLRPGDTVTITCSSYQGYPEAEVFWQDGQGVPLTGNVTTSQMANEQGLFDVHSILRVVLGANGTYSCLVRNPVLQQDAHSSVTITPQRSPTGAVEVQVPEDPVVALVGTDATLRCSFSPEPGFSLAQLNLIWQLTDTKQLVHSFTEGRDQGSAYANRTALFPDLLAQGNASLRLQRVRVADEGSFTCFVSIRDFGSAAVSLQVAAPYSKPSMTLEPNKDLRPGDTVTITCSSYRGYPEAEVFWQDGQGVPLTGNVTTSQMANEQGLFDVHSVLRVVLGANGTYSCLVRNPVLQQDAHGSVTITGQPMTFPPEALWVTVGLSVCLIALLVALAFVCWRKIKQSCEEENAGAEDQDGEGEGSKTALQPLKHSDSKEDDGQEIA

[2] = target: T2, hB7H4细胞 (HEK293 cells expressing human B7H4-EGFP) (human, UniProt Q7Z7D3 25-282); assay: FACS on transfected HEK293 cells
T2 construct: also called hB7H4-EGFP; not shown: enhanced green fluorescent protein EGFP, UniProt C5MKY7
T2 sequence (looked up): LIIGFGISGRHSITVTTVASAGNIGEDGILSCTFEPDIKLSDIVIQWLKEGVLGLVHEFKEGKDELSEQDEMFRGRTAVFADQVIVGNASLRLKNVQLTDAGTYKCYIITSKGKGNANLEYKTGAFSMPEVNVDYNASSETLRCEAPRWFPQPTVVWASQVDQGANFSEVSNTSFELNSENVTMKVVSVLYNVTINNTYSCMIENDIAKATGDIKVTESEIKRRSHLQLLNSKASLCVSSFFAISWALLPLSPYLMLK

[3] = target: T3, mPD-L1细胞 (HEK293 cells expressing mouse PD-L1-EGFP) (mouse, UniProt Q9EP73 19-290); assay: FACS on transfected HEK293 cells
T3 construct: also called mPD-L1-EGFP; 小鼠PD-L1; not shown: enhanced green fluorescent protein EGFP, UniProt C5MKY7

[4] = target: T4, hPD-1-EGFP细胞 (HEK293 cells expressing human PD-1-EGFP) (human, UniProt Q15116 25-288); assay: FACS on transfected HEK293 cells
T4 construct: Fusion expressed on transfected HEK293 cells; not shown: enhanced green fluorescent protein EGFP, UniProt C5MKY7

[5] = target: T5, hPD-L1-EGFP细胞 (HEK293 cells expressing human PD-L1-EGFP) (human, UniProt Q9NZQ7 19-290); assay: FACS on PD-L1-EGFP cells
T5 construct: Fusion expressed on transfected HEK293 cells; junction between PD-L1 and EGFP not described; also called 细胞表面PD-L1; not shown: enhanced green fluorescent protein EGFP, UniProt C5MKY7

重组的人PD-L1-His [6] = target: T6, 重组的人PD-L1-His (human, UniProt Q9NZQ7 19-238, limits assumed); assay: BLI (Octet K2), antibody on AMC sensor, hPD-L1-His analyte
T6 construct: Analyte in the BLI assays; also called hPD-L1-His; hPD-L1; not shown: His tag

[7] = target: T7, PD-L1 (in the mixed lymphocyte reaction of human dendritic cells and CD4+ T cells) (human, UniProt Q9NZQ7 19-290); assay: cell-based or functional assay
hPD-L1-Fc = target: T8, hPD-L1-Fc (human, UniProt Q9NZQ7 19-238); assay: ELISA blocking assay, hPD-L1-Fc coated, competitor PD-1-Biotin 10μg/ml
T8 construct: range 1-238; The stated range 1-238 begins at residue 1 and so includes the native signal peptide; No linker is stated; also called hPD-L1-Fc融合蛋白

重组的人PD-L1-His [8] = target: T6, 重组的人PD-L1-His; assay: BLI (Octet K2), antibody on AHC sensor, hPD-L1-His analyte
重组的人PD-L1-His [9] = target: T6, 重组的人PD-L1-His; assay: BLI as in Example 4, hPD-L1-His analyte
[10] = target: T7, PD-L1 (in the mixed lymphocyte reaction …); assay: cell-based or functional assay; remark: listed apart in the source
重组的人PD-L1-His [11] = target: T6, 重组的人PD-L1-His; assay: BLI as in Example 4, hPD-L1-His analyte; remark: listed apart in the source
[12] = target: T7, PD-L1 (in the mixed lymphocyte reaction …); assay: cell-based or functional assay; remark: listed apart in the source

T6 sequence (Q9NZQ7 19-238 limits assumed): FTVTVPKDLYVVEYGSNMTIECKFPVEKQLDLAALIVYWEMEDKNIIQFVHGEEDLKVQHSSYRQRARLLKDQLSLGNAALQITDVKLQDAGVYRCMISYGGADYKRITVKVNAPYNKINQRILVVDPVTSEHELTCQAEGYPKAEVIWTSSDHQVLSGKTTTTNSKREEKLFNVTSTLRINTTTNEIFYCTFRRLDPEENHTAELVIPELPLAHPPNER
T8 sequence (Q9NZQ7 19-238 limits assumed, form in doubt): as the sequence (Q9NZQ7 19-238 limits assumed) above
T3 sequence (Q9EP73 19-290): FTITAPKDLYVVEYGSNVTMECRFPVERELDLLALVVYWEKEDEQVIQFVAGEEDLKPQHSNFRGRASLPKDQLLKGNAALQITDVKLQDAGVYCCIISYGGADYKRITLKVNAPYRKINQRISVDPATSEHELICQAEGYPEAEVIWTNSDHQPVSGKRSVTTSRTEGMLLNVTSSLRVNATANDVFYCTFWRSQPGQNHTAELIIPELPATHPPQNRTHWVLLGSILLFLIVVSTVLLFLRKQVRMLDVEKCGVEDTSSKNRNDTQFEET
T7 sequence (Q9NZQ7 19-290 limits assumed): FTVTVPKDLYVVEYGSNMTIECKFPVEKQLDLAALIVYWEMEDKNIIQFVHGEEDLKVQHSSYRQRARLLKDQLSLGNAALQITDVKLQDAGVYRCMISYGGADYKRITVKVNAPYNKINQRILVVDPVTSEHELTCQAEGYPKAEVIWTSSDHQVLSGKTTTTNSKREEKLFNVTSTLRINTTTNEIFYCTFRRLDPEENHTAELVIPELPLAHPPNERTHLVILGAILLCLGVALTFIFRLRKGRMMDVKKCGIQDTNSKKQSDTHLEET
T5 sequence (Q9NZQ7 19-290): as the sequence (Q9NZQ7 19-290 limits assumed) above
T4 sequence (Q15116 25-288): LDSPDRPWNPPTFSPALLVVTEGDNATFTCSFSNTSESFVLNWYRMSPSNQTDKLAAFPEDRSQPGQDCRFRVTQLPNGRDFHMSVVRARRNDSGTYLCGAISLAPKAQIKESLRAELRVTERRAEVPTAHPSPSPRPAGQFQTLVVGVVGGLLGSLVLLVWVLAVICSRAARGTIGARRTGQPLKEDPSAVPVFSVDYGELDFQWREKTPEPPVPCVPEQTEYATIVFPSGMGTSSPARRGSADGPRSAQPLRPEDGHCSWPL

binding result [1]: no binding (tested: 10μg/ml)
binding result [2]: no binding (tested: 10μg/ml)
binding result [3]: no binding (tested: 10μg/ml)
binding result [4]: no binding (tested: 10μg/ml)
EC50 [5]: 2.76 mg/L
Kd (重组的人PD-L1-His [6]): 4.29 nM
koff (重组的人PD-L1-His [6]): 0.0036 s⁻¹
kon (重组的人PD-L1-His [6]): 840000 M⁻¹ s⁻¹
EC50 of IFN-γ secretion in mixed lymphocyte reaction (MLR) [7]: 0.0588 mg/L
B2: 抗体7A3 (antibody, V domains shown)
VH: EVQLQESGPSLVKPSQTLSLTCSVTGDSITSGYWNWIRKFPGNDLEYMGYISYTGSTYYNPSLKSRISITRDTSKNQYYLQLNSVTTEDTATYYCARFGLWHLPAALDYWGQGTSVTVSS
VL: DIVLTQSPAIMSASPGEKVTMTCSAKSSISYMHWYQQKPGTSPKRWIYDTSKLASGVPARFSGSGSGTSYSLTISSMEAEDAATYYCHQRSSYPFTFGSGTKLEIK
notes: Mouse antibody purified from hybridoma supernatant on protein A

Kd (重组的人PD-L1-His [9]): 6.89 nM
koff (重组的人PD-L1-His [9]): 0.00174 s⁻¹
kon (重组的人PD-L1-His [9]): 252000 M⁻¹ s⁻¹
B4: 8G1 3-3NG (antibody, V domains shown)
VH: QVQLVQSGAEVKKPGASVKVSCKASGYTFTEYIIHWVKQAPGQGLEWIGWFYPGSGNIRYNEKFKDKATLTADKSSSTVYMELSSLRSEDTAVYFCARHEDKGAWFAYWGQGTLVTVSS
VL: DIVLTQSPATLSLSPGERATLSCSASSQVSYMYWYQQKPGQSPKPWIYLTSNLASGVPARFTGSGSGTSYTLTISSLEPEDFAVYYCQQWSSNPLTFGQGTKVEIK
notes: Glycosylation-site variant of humanized 8G1 3-3; human IgG1 format as for 8G1 3-3; also called 8G1 3-3 with N28 mutated in VL

IC50 (hPD-L1-Fc): 1.82 mg/L
EC50 of IFN-γ secretion in mixed lymphocyte reaction (MLR) [10]: ~0.176 mg/L
Kd (重组的人PD-L1-His [8]): 23.6 nM
koff (重组的人PD-L1-His [8]): 0.0119 s⁻¹
kon (重组的人PD-L1-His [8]): 504000 M⁻¹ s⁻¹
B6: 人源化抗体7A3 1-3 (antibody, V domains shown)
VH: QVQLQESGPGLVKPSETLSLTCTVSGDSITSGYWNWIRKPPGNGLEYMGYISYTGSTYYNPSLKSRITITRDTSKNQYSLKLSSVTAADTAVYYCARFGLWHLPAALDYWGQGTLVTVSS
VL: DIVLTQSPATLSLSPGERATLSCSAKSSISYMHWYQQKPGQAPRLLIYDTSKLASGVPARFSGSGSGTDFTLTISSLEPEDFAVYYCHQRSSYPFTFGQGTKVEIK
notes: Humanized; also called 7A3VLV1 + 7A3VHV3

EC50 of IFN-γ secretion in mixed lymphocyte reaction (MLR) [12]: 1.05 mg/L
B7: 7A3 3-3QG (antibody, V domains shown)
VH: QVQLQESGPGLVKPSETLSLTCTVSGDSITSGYWNWIRKPPGQGLEYMGYISYTGSTYYNPSLKSRITITRDTSKNQYSLKLSSVTAADTAVYYCARFGLWHLPAALDYWGQGTLVTVSS
VL: DIVLTQSPATLSLSPGERATLSCSAKSSISYMHWYQQKPGTSPKRWIYDTSKLASGVPARFSGSGSGTSYTLTISSLEPEDFAVYYCHQRSSYPFTFGQGTKVEIK
notes: human IgG1 format as for 7A3 3-3; also called 7A3 3-3 with N43Q in VH

binding result [1]: no binding (tested: 10μg/ml)
binding result [2]: no binding (tested: 10μg/ml)
binding result [3]: no binding (tested: 10μg/ml)
binding result [4]: no binding (tested: 10μg/ml)
EC50 [5]: 2.25 mg/L
Kd (重组的人PD-L1-His [6]): 2.32 nM
koff (重组的人PD-L1-His [6]): 0.00117 s⁻¹
kon (重组的人PD-L1-His [6]): 504000 M⁻¹ s⁻¹
EC50 of IFN-γ secretion in mixed lymphocyte reaction (MLR) [7]: ~0.03 mg/L
B9: 抗体8G1 (antibody, V domains shown)
VH: KVQLRQSGAELVKPGTSVKLSCKASGYTFTEYIIHWVKQRSGQGLEWIGWFYPGSGNIRYNEKFKDKATLTADKSSSTVYMELSRLTSEDSAVYFCARHEDKGAWFAYWGQGTLVTVSA
VL: DIVLTQSPALLSASPGEKVTMTCSASSNVSYMYWYQQKPRSSPKPWIYLTSNLASGVPARFTGSGSGTSYSLTISSMEAEDGATYYCQQWSSNPLTFGAGTKLEVK
notes: as for B2

Further lines, the binder ahead of its results:

B1: 抗体5A5 (antibody, V domains shown)
VH: EVQLQESGPSLVKPSQTLSLTCSVTGDSITSGYWNWIRKFPGNKLEYMGYISYTGSTYYNPSLKSRISITRDTSKNQYYLQLNSVTTEDTATYYCAKYGLWHLPAAMDYWGQGTSVTVSS
VL: DIVLTQSPAIMSASPGEKVTMTCSASSSISYMHWYQQKPGTSPKRWIYDTSKLASGVPARFSGSGSGTSYSLTISSMEAEDAATYYCHQRSSYPFTFGSGTKLEIK
notes: as for B2
binding result [1]: no binding (tested: 10μg/ml)
binding result [2]: no binding (tested: 10μg/ml)
binding result [3]: no binding (tested: 10μg/ml)
binding result [4]: no binding (tested: 10μg/ml)
EC50 [5]: 1.33 mg/L
Kd (重组的人PD-L1-His [6]): 5.75 nM
koff (重组的人PD-L1-His [6]): 0.00453 s⁻¹
kon (重组的人PD-L1-His [6]): 788000 M⁻¹ s⁻¹
EC50 of IFN-γ secretion in mixed lymphocyte reaction (MLR) [7]: 0.104 mg/L

B3: 人源化抗体8G1 3-3 (antibody, V domains shown)
VH: QVQLVQSGAEVKKPGASVKVSCKASGYTFTEYIIHWVKQAPGQGLEWIGWFYPGSGNIRYNEKFKDKATLTADKSSSTVYMELSSLRSEDTAVYFCARHEDKGAWFAYWGQGTLVTVSS
VL: DIVLTQSPATLSLSPGERATLSCSASSNVSYMYWYQQKPGQSPKPWIYLTSNLASGVPARFTGSGSGTSYTLTISSLEPEDFAVYYCQQWSSNPLTFGQGTKVEIK
notes: Humanized; also called 8G1VLV3 + 8G1VHV3
IC50 (hPD-L1-Fc): 1.24 mg/L
Kd (重组的人PD-L1-His [8]): 0.0163 nM
koff (重组的人PD-L1-His [8]): 5.79e-06 s⁻¹
kon (重组的人PD-L1-His [8]): 355000 M⁻¹ s⁻¹

B5: 人源化抗体7A3 3-3 (antibody, V domains shown)
VH: QVQLQESGPGLVKPSETLSLTCTVSGDSITSGYWNWIRKPPGNGLEYMGYISYTGSTYYNPSLKSRITITRDTSKNQYSLKLSSVTAADTAVYYCARFGLWHLPAALDYWGQGTLVTVSS
VL: DIVLTQSPATLSLSPGERATLSCSAKSSISYMHWYQQKPGTSPKRWIYDTSKLASGVPARFSGSGSGTSYTLTISSLEPEDFAVYYCHQRSSYPFTFGQGTKVEIK
notes: Humanized; also called 7A3VLV3 + 7A3VHV3
IC50 (hPD-L1-Fc): 1.44 mg/L
EC50 of IFN-γ secretion in mixed lymphocyte reaction (MLR) [10]: 0.449 mg/L
Kd (重组的人PD-L1-His [11]): 13.2 nM
koff (重组的人PD-L1-His [11]): 0.00547 s⁻¹
kon (重组的人PD-L1-His [11]): 415000 M⁻¹ s⁻¹
Kd (重组的人PD-L1-His [8]): 2.85 nM
koff (重组的人PD-L1-His [8]): 0.00128 s⁻¹
kon (重组的人PD-L1-His [8]): 449000 M⁻¹ s⁻¹
EC50 of IFN-γ secretion in mixed lymphocyte reaction (MLR) [12]: 0.0285 mg/L

B8: 7A3 3-3ND (antibody, V domains shown)
VH: QVQLQESGPGLVKPSETLSLTCTVSGDSITSGYWNWIRKPPGNDLEYMGYISYTGSTYYNPSLKSRITITRDTSKNQYSLKLSSVTAADTAVYYCARFGLWHLPAALDYWGQGTLVTVSS
VL: DIVLTQSPATLSLSPGERATLSCSAKSSISYMHWYQQKPGTSPKRWIYDTSKLASGVPARFSGSGSGTSYTLTISSLEPEDFAVYYCHQRSSYPFTFGQGTKVEIK
notes: human IgG1 format as for 7A3 3-3; also called 7A3 3-3 with G44D in VH
Kd (重组的人PD-L1-His [11]): 14.4 nM
koff (重组的人PD-L1-His [11]): 0.00631 s⁻¹
kon (重组的人PD-L1-His [11]): 438000 M⁻¹ s⁻¹
EC50 of IFN-γ secretion in mixed lymphocyte reaction (MLR) [12]: 0.576 mg/L
